Reference: the supplement of paper PMC10126150
± gives the standard deviation of the averaged measurements.

System: ATP
Experiment: switch fluorescence ratio, 500 uM ATP over buffer (Cy3 cluster intensity, sum of 5 cycles each) (fold (ratio)); higher = stronger signal-on switching upon ATP binding; sequences stand for … in TCGTCGGCAGCGTCAGATGTGTATAAGAGACAGTTTTTTTTTTTTTTTTTTTTTTTTT…TC
Settings: aptamer strand: ATP DNA aptamer (quencher-CACCTGGGGGAGTATTGCGGAGGAAGG + anchor), 100 nM annealed; ATP concentration: 500 uM
In short: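 Cy3-labelled switching-strand clusters on a modified Illumina MiSeq flow-cell were annealed to 100 nM quencher-labelled ATP aptamer and imaged first in selection buffer, then after 15 min with 500 uM ATP at 22 °C. NaOH stripping and re-annealing separated each of five buffer/ATP cycles, and clusters outside 100-1000 RFU were excluded. The fluorescence ratio sums target-cycle Cy3 intensity over buffer-cycle Cy3 intensity per cluster and averages it per switch-domain sequence.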
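Further: ATP exposure 15 min at 22 °C before imaging.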

| Sequence | switch fluorescence ratio |
| --- | --- |
| AATAGGGAGG | 0.979 ± 0.025 |
| GAGGACTGTA | 1.09 ± 0.025 |
| TGGAATAGAA | 1.01 ± 0.02 |
| AGATGGAGGA | 0.99 ± 0.033 |
| GACTTTAGCG | 1.03 ± 0.023 |
| AGTTGTGTTA | 1.007 ± 0.0057 |
| CGGGGGTTAA | 0.9908 ± 0.0021 |
| CGTTGAGACC | 0.995 ± 0.019 |
| CTGAGCGATG | 1.063 ± 0.0078 |
| AACCGGATTC | 1 ± 0.02 |
| TTTGCAGGCA | 1.03 ± 0.011 |
| GGGGTCGTTG | 0.995 ± 0.017 |
| TTGTGAGTGC | 0.91 ± 0.023 |
| ATACCTTA | 1.02 ± 0.038 |
| GCATGACCAG | 0.974 ± 0.026 |
| ACGGGGTAGT | 1.02 ± 0.024 |
| TAGTTAGAAG | 1.08 ± 0.13 |
| GATTATAAGG | 1.007 ± 0.01 |
| AAGAGGGCGT | 1.012 ± 0.0064 |
| ATAATGAGTC | 0.961 ± 0.013 |
| ATAAATGCCG | 0.961 ± 0.12 |
| GGGCAGCCCG | 0.98 ± 0.014 |
| ACAGGCTGAG | 0.9973 ± 0.0097 |
| CTGGGAATGG | 1.12 ± 0.11 |
| TTTGGGTGGT | 1.09 ± 0.21 |
| AGTTAAGAGC | 1.01 ± 0.038 |

| Sequence | switch fluorescence ratio |
| --- | --- |
| TCGGGTACTT | 1.04 ± 0.055 |
| TTTTTTTGCC | 1 ± 0.058 |
| GATCTCAGAG | 0.967 ± 0.014 |
| AGGGTTGTCG | 0.99 ± 0.023 |
| AAGAACGGTA | 1.06 ± 0.043 |
| CCTAATTTTA | 0.971 ± 0.043 |
| GCAGTTTTCA | 1.04 ± 0.095 |
| CGGGTTGTCG | 1.02 ± 0.05 |
| TCTTGGTA | 0.959 ± 0.031 |
| TCGATTGGCG | 1.07 ± 0.1 |
| TGAGGGGATT | 1 ± 0.022 |
| TATGATTGGC | 0.972 ± 0.061 |
| ATGAAGTTTT | 1.02 ± 0.028 |
| AACAGATTTT | 0.998 ± 0.011 |
| AGTTCGCTGT | 0.9889 ± 0.0067 |
| CGTATGGTTG | 1.06 ± 0.09 |
| CGGTATAACT | 1 ± 0.011 |
| TTATGTCAGC | 1.01 ± 0.023 |
| ATGATGGGGT | 1.01 ± 0.06 |
| TGGGTGATTA | 0.9846 ± 0.005 |
| CAGCCCTTGA | 1.024 ± 0.0083 |
| CGCGTTCCGT | 1.03 ± 0.019 |
| GCTTTGGATG | 0.968 ± 0.05 |
| AGGGCGCGCT | 1.01 ± 0.034 |
| GCTCTACGGT | 1.013 ± 0.0099 |
| TCCCAAAGGG | 1.63 ± 0.91 |

| Sequence | switch fluorescence ratio |
| --- | --- |
| CGCAGCCCAG | 1.58 ± 0.086 |
| AGCCGAATTT | 0.997 ± 0.019 |
| GGGCAGGGGC | 1 ± 0.025 |
| TTCGTAGTGA | 1.18 ± 0.025 |
| AATGAGGCTT | 0.996 ± 0.011 |
| TGATTACTAG | 0.974 ± 0.017 |
| TGGTAATGGT | 1.03 ± 0.074 |
| TTTAATTGCG | 0.993 ± 0.012 |
| GTGCCCTGTA | 0.9704 ± 0.0046 |
| CCCTCACTTA | 1.08 ± 0.049 |
| TTTGTGTCGT | 0.982 ± 0.053 |
| TTAGGAGCTT | 1 ± 0.014 |
| TGAGGGCAGG | 1.023 ± 0.007 |
| GGGGCTTAAA | 1.04 ± 0.047 |
| TTGCAAGCGG | 0.995 ± 0.011 |
| CCAAGTTCGG | 1.02 ± 0.011 |
| AAGTCTGTCT | 0.998 ± 0.054 |
| TAGTTCACGG | 0.9991 ± 0.0073 |
| TTTACTGGGC | 1.03 ± 0.022 |
| TGGTTGGGCA | 0.993 ± 0.055 |
| AACTTGTGTG | 0.989 ± 0.042 |
| GCCTGTTTTG | 1 ± 0.046 |
| ATAGTTCAGC | 0.9822 ± 0.0058 |
| TTTCTGTGTT | 1.012 ± 0.0069 |
